Experimental data taken from publication PMC3714538.

Each substance was assayed against LC3B (protein of the ITC experiments) (UniProt Q9GZQ8) (assay: ITC).

Compared with “OPTN peptide LIR_P0 (no phosphorylation) (from UniProt Q96CV9 169-184)”, “OPTN peptide LIR_P1 (pSer177) (from UniProt Q96CV9 169-184)” is 5.2-fold lower in Kd: 67 µM for the first, 13 µM for the second.

In the case of “OPTN peptide LIR_Ptot (all serines phosphorylated) (from UniProt Q96CV9 169-184)”, the Kd is reported as 5 µM.
